Earlier results in publication PMC6928821.
Like-named read-outs stand apart in the source and are kept apart here.

Assays:
[1] = target: p300 (Homo sapiens) (UniProt Q09472)
[2] = target: p300 Taz2 (Homo sapiens) (UniProt Q09472)
[3] = target: p300 Taz2 (Homo sapiens) (UniProt Q09472); remark: listed apart in the source

p53 TAD1 TAD1, sequence (P04637 13-37): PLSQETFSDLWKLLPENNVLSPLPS
p300 Taz2 (Homo sapiens), sequence (Q09472 1723-1836): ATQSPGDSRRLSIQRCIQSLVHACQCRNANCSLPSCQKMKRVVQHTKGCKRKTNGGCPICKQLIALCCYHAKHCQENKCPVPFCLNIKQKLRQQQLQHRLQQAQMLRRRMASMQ
p300 (Homo sapiens), sequence (Q09472 2-2414): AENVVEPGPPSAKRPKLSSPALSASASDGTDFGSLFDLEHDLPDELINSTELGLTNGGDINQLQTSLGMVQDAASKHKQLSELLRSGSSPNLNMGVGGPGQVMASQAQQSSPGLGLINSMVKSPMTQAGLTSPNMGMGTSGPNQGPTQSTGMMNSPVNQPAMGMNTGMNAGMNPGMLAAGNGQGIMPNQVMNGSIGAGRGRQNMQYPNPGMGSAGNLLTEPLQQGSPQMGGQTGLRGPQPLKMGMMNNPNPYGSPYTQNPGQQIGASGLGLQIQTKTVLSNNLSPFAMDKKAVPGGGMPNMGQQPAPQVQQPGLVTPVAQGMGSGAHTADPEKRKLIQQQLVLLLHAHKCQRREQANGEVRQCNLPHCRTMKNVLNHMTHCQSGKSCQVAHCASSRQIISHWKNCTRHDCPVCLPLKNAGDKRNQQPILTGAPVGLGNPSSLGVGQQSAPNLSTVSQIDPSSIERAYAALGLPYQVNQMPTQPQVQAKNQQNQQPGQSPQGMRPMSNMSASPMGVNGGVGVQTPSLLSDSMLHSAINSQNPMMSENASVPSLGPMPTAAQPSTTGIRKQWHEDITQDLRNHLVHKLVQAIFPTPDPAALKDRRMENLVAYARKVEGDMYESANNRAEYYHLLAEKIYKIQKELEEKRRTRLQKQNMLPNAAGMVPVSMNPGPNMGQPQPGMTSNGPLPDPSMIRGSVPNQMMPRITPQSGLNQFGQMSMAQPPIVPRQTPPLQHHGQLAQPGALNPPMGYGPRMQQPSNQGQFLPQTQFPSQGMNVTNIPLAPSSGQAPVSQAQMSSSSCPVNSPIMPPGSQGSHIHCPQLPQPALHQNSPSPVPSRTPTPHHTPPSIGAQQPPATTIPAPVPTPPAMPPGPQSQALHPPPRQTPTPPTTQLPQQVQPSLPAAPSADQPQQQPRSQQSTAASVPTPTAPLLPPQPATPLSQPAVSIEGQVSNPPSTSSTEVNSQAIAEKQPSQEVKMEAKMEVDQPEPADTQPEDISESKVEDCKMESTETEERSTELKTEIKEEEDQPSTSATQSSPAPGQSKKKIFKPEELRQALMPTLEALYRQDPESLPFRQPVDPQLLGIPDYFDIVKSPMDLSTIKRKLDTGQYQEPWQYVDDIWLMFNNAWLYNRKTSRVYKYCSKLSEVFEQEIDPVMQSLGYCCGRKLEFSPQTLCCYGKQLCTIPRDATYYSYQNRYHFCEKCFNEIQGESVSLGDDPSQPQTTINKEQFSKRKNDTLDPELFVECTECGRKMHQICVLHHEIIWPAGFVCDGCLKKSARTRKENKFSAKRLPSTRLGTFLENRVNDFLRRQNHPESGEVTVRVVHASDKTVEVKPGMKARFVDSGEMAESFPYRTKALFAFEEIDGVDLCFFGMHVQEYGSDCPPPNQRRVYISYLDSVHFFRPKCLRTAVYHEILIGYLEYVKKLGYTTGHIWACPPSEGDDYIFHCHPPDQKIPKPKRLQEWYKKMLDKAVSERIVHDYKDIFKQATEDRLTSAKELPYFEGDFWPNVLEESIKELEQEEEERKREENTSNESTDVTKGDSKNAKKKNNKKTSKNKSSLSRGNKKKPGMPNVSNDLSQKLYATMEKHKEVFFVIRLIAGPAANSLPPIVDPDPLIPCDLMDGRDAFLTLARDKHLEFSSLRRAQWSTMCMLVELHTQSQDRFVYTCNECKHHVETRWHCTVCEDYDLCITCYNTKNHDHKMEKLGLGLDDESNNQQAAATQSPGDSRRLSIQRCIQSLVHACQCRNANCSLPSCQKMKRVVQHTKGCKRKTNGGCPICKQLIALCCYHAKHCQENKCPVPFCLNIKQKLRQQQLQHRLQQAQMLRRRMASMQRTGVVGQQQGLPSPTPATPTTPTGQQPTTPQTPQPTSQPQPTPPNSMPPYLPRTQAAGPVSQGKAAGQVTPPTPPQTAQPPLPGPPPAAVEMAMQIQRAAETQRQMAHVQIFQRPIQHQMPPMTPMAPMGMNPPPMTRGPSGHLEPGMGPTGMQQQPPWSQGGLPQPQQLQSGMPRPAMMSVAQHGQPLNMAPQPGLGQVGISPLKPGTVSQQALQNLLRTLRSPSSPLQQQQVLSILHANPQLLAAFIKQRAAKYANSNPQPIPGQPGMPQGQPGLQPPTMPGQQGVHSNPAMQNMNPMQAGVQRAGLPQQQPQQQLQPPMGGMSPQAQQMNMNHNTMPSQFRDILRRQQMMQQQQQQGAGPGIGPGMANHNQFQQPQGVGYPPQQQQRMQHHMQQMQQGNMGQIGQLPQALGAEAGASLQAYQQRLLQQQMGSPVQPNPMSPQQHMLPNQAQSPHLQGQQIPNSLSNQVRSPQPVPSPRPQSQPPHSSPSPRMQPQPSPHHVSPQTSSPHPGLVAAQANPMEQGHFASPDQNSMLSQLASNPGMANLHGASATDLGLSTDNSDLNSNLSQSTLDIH
p53 TAD1 1-39, sequence (P04637 1-39): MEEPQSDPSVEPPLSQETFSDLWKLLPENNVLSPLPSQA

Kd [1] [nM] | Kd [2] [nM] | Kd [3] [nM] | Substance
3000 |  |  | p53 TAD1 1-39 (from UniProt P04637)
 | 3000 | 200 | p53 TAD1 TAD1 (from UniProt P04637)
